Measurements: the supplement of paper PMC12764529
± gives the half width of the 95% confidence interval.

Tests used:
[1] = folding stability dG unfold from trypsin proteolysis; higher = more stable
Procedure: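 Folding stability of de novo designed mini-proteins (<80 aa, no Cys; designed by TrROS, TrMRF, ProteinMPNN and the joint model) was measured by cDNA display proteolysis with trypsin and chymotrypsin. Each protease was used at 11 concentrations in a threefold dilution series plus a no-protease condition. K50 was inferred by Bayesian fitting of sequencing counts, and dG unfold was derived against a sequence-predicted unfolded-state K50 (Tsuboyama et al. method). Sequences shown include variable-length N-terminal GS-type padding (SAGGSAGG...) inside a display construct carrying a PA tag. Rows were kept only if the AF2 dimer inter-PAE was >15, to exclude likely homo-oligomers.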

[2] = folding stability dG unfold (combined trypsin and chymotrypsin); higher = more stable
Procedure, shortened: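 Designed mini-proteins with no cysteine and under 80 residues were kept only if AlphaFold2 dimer inter-PAE was above 15. In a PA-tagged cDNA display construct, they were digested with trypsin and chymotrypsin and then sequenced. K50 was inferred by Bayesian fitting of counts, and unfolding free energy was derived per protease or combined against a sequence-predicted unfolded-state K50 and a shared folded-state K50.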

| Sequence | folding stability dG unfold [1] [kcal/mol] | folding stability dG unfold [2] [kcal/mol] |
| --- | --- | --- |
| SAGGSGLRVGDVVEAEGVVVPDPETRLRRAVFRFPDFVVVEVVEVPEDVAPDEEIPFPVRIDAIVPSAGGSA [r2_113_TrMRF] | -0.512 ± 0.19 | -0.645 ± 0.17 |
| SAGGSAGGSAGDEKVPFFVRIIDPKNGKPVREFPVEVDPGKIKIPKELAENMPPDNVEIYSAGGSAGGSAGG [r11_725_TrROS] | -0.824 ± 0.4 | < -1 |
| SAGGSAGGSAGGSMPYVVVVKYPDGSTVTFPPGEDINVKVSPDKKGVEVVSVVPLSELLSAGGSAGGSAGGS [r4_122_JUSTAS] | 0.179 ± 0.054 | -0.332 ± 0.2 |
| SAGGSAGGSAGGTEEEALEKAERLAKELGVDLKDVKILNPPDKFEAVFTIPGTGENIKLSAGGSAGGSAGGS [r10_161_JUSTAS] | -0.505 ± 0.46 | -0.601 ± 0.97 |
| SAGGSAMEVKIIPGSKEAIINDPENGKPIPATIIEIEPIEPDKNLFKAKVKIPSNGGWKEVLVDLGSAGGSA [r15_209_TrMRF] | -1.23 ± 0.39 | < -1 |
| SAGGSQEFKFEILVPFDSPEEAKEEAEEIAKILQDHGLDVKVKVERDPNGAVKVPPTIRVDPEDGRPLSAGG [r13_697_TrROS] | 0.397 ± 0.1 | -0.236 ± 0.31 |
| SAGGSAGGSAGGSMYVIVTVPPGERLTFPLNPEIDVPEEEIKEKLKKELPVESIEILLPSAGGSAGGSAGGS [r4_116_JUSTAS] | -0.362 ± 0.19 | -0.813 ± 0.99 |
| SMEIKVTVEEKDGKKYVTIEIKLSEEELKGKELTEEEIEELARELAKKLGIKEVKIERLPNGTYRIVIELSA [r9_883_TrROS_Hall] | 4.47 ± 0.39 | > 6 |
| SAGGSAGGSAGGPSAVSSSSSSRTTTVPGTGTPLRVSSTTTTLDAATGASTTTTTTSPGASAGGSAGGSAGG [r11_1029_JUSTAS] | -0.553 ± 0.13 | < -1 |
| SAGGSAGGSAGGMPELTVETEGFPDGSYRVVVTNPGTGELVAVAERPSSTSVADFAKELASAGGSAGGSAGG [r7_633_TrMRF] | -0.688 ± 0.13 | < -1 |
| SAGGSAGGSAGGWKTISVNELQDILREEGKPMTADDLIEDPNIKVEENPGNGMPTIEIPPSAGGSAGGSAGG [r7_180_TrROS] | -0.891 ± 0.24 | -0.77 ± 0.79 |
| SAGGLDSAPPVEVKVEVEEEKTKDPNSDSEVTKYKITVTTTVGGTPIVTEEESIVYKKPDGTIIVEKKSAGG [r19_260_JUSTAS] | -0.403 ± 0.28 | -0.242 ± 0.96 |
| SAGGSAGGSAGPKPIRIKVKWRNEKDGEKRKVTIPIPPGMPLEELIKNADPNQVRDVEIVSAGGSAGGSAGG [r11_386_TrROS] | -0.276 ± 0.1 | < -1 |
| SAGGMSKEEARKAIENPADATYTFTITTRPSTPTPSSTTTTVTAKVTDPDAFLDAVPEGHSVTVTASSAGGS [r16_116_JUSTAS] | -0.465 ± 0.14 | < -1 |
| SAGGMNPDNFKPVRTYTLPFDGHKIEVEVWEPPNGNPLIPIQLEDDNGKPKGPQWIPPDQIDENGKILSAGG [r13_447_TrROS] | 0.343 ± 0.091 | -0.213 ± 0.28 |
| SAGGQTIEIPNGITITYYPNNQVTITIRYPGRPLTVTSPYDSPEEAIDNIIEQAREMARPPPPKKKDDSAGG [r13_896_TrROS] | 0.633 ± 0.16 | 0.68 ± 0.41 |
| SAGGSAGGSAGPEIRVDDLEDGVVRITTVNVDPSTGAPVATTTTTLPRESLSPEVVALLSSAGGSAGGSAGG [r11_376_JUSTAS] | 0.046 ± 0.038 | < -1 |
| SAGGSAGGSAGVIEVPIEELENLPDDVKVVPTENTAVIYNEKNPIVVPKNEPVLIAPSDKSAGGSAGGSAGG [r17_91_TrMRF] | 0.937 ± 0.051 | < -1 |

| Sequence | folding stability dG unfold [1] [kcal/mol] | folding stability dG unfold [2] [kcal/mol] |
| --- | --- | --- |
| SKTVEIPIRNPNGMQVNIMANPEKGKVMIHMGNNMPFENIKKALRELLPPGKDVDITTHPNGMAVIELKPSA [r9_933_TrROS] | -0.277 ± 0.19 | -0.734 ± 0.43 |
| SAGGSAGGSASIEVEAEPAEIEKVAEEAPEDEEVLVRDPKTGRVYLVKPDEVVLLREVPALLSAGGSAGGSA [r18_246_JUSTAS] | -0.238 ± 0.086 | -0.821 ± 0.48 |
| SAGLTAKITSVTEENGTLTVTVEVTAPDGSTFTFTATFRIEPAPAPPVKVTVETDADGNVTVTVETLDSAGG [r19_172_TrROS_Hall] | 5.13 ± 0.28 | > 6 |
| SAKLTPEEIEELAEKLAKELAEKEGIEKVEVKVEKKEDGKVTVEIRFEKNKKTIRIEFENGEVKIVEIESAG [r14_925_TrROS_Hall] | 2.62 ± 0.39 | 2.97 ± 0.72 |
| SAGGSAGGSAGMPPGSIKVTVTSTAPDGTPSTTESTIPPSQVDKVKAEAAAKGWTVSFTGSAGGSAGGSAGG [r11_603_JUSTAS] | 0.654 ± 0.034 | 0.245 ± 0.068 |
| SAGGMEVVENPGGNLKIIEKEPEGPEFVKTTTTTIKTFKNPGGSTSSTITTTTTTVKISKSKNPELLSAGGS [r16_802_JUSTAS] | -0.742 ± 0.26 | -0.784 ± 0.3 |
| SAGGSAGGKKKFKVEKITEIKVEKLENGEEVIVKIRLKNGEEIEIPAKDIKLEDLPEGAEIEVISAGGSAGG [r6_609_TrROS_Hall] | 0.123 ± 0.34 | < -1 |
| SAGGSAGGSAGGGAMSPEPLGFKKVETKVEVVGGSPVIVVKLETPEGELELELPPDAKLSAGGSAGGSAGGS [r10_968_JUSTAS] | -0.308 ± 0.12 | < -1 |
| SAGGSAGGSAGGMPVTVEVKEEELPGGEKVITVTVTYPDPVVETLEVKKLPPVDPNNKPSAGGSAGGSAGGS [r10_684_JUSTAS] | 0.294 ± 0.1 | -0.103 ± 0.3 |
| SAGSTVEVLEERPLEDGSVLVRVRVDDAAPDGSPVAVVDVLVLPGGEAVMTFPDGTPVRLPLSELGLPPSAG [r5_137_JUSTAS] | 0.108 ± 0.14 | -0.319 ± 0.2 |
| SAGKNPGPVLILADGGEEGVKAVAYFPDGPLETEFPGSGDIAIVIPPGLTPSDVLKAAAVALKEAAESSAGG [r19_170_TrMRF] | 0.396 ± 0.037 | -0.337 ± 0.24 |
| SAGGSAGGSAGKKVVTIDIPIDNPEELEVAEEIAREAAKELGVPPEEIPVTWEGNYLRIESAGGSAGGSAGG [r11_218_TrMRF] | -0.423 ± 0.075 | < -1 |
| SAGSSSTTIEVPVGDPAKAGSVEEYKEKLIKEGFSESDVPTATPLPDGTRLVTFKSPSTTVTLVVPLGESAG [r5_144_JUSTAS] | -0.341 ± 0.056 | -0.846 ± 0.2 |
| SAGPKNAKPIGTVRIRNPNGRKINIMQWPNPIMVHIKPPDGKKREVPIRGAPMEEILDELAEDGWEVEPSAG [r5_613_TrROS] | -0.489 ± 0.63 | < -1 |
| SAGSAKELAKEIADTIADEMQDRHPGFKPTEVEVKEIEVNPENGWVKINIEMRFPNGKPIWKPEITIPSAGG [r19_53_TrROS] | -0.0323 ± 0.058 | -0.557 ± 0.25 |
| SAGGSAGGSASKYVKVTVRLTPPDGTTRTVEITDPNKTVEEIIASLPSDEPVEVTEVEELPPSAGGSAGGSA [r18_32_JUSTAS] | 0.197 ± 0.18 | -0.806 ± 0.49 |
| SAGGSAGGSAGGSKKTLPFPSVEDVVKYLKDLGLKDVKVDLPPGDLTINLDEIEEALKESAGGSAGGSAGGS [r4_101_TrMRF] | -0.957 ± 0.57 | < -1 |
| SAGGSAGGSAGGSMPVEILEVEEADPETGIRTYKLRDPVIGVESTIEGPLSPEEIEALLSAGGSAGGSAGGS [r4_228_JUSTAS] | -0.808 ± 0.55 | < -1 |
